Experimental findings from US20230090901A1 (GAMMADELTA THERAPEUTICS, published 2023) are described below.

The chains are these.
B1: G4_18 (antibody, human IgG1, V domains shown)
VH: EVQLVESGAEVKKPGASVKVSCKASGYTFTGYYMHWVRQAPGQGLEWMGRINPNSGGTNYAQKFQGRVTMTRDASISTAYMELSRLRSDDTAVYYCARDLDLSSLDYWGRGTLVTVSS
VL: SSYELTQPPSVTESPGQTARITCSGDALAKQYAYWYQQKPGQAPVLVIYRDSERPSEIPERFSGSSSGTTVTLTISGVQAEDEADYYCQSADSSGTYTVFGGGTKLTVLG
notes: also called 1254_P01_H04; clone G4_18
B2: G4_12 (antibody, human IgG1, V domains shown)
VH: EVQLLESGGGLVQPGGSLRLSCAASGFTVSSNYMSWVRQAPGKGLEWVSVIYSGGSTYYADSVKGRFTISRHNSKNTLYLQMNSLRAEDTAVYYCARVANGDFLDYWGRGTLVTVSS
VL: SQSVLTQPASVSGSPGQSITISCTGTSSDVGGYNFVSWYQQHPGKAPKLMIYEVTNRPSGVPDRFSGSKSGNTASLTISGLQAEDEADYYCSSHASPRVFGTGTKVTVLG
notes: also called 1140_P01_G08; clone G4_12
B3: G4_27 (antibody, human IgG1, V domains shown)
VH: QVQLVQSGAEVKKPGESLKISCKSSGYSFTSYWIGWVRQMPGKGLEWMGIIYPGDSDTRYSPSFQGQVTFSADESISTAYLQWSSLKASDTAMYYCARHGAYGDYPDTFDIWGQGTLVTVSS
VL: SSYELTQDPAVSVALGQTVSITCQGDSLRNFYANWYQQKPGQAPVLVIYGKNNRPSGIPDRFSGSSSGNTASLTITGAQAEDEADYYCNSRDSSGNHLVFGGGTQLTVLG
notes: also called 1248_P02_C10; clone G4_27
B4: G4_3 (antibody, human IgG1, V domains shown)
VH: EVQLVESGGGLVQPGGSLRLSCAASGFTFSSYSMNWVRQAPGKGLEWVSSISSSSSYIYYADSVKGRFTISRDNSKNTLYLQMNSLRAEDTAVYYCARGGWLYDYWGQGTLVTVSS
VL: DIQMTQSPSSLSASVGDRVTITCQASQDISNYLNWYQQKPGKAPKLLIYDASNLETGVPSRFSGSGSGTDFTLTISSLQPEDFATYFCQQSYSTPQTFGQGTKVDIKR
notes: also called 1139_P01_A04; G4_03
B5: G4_20 (antibody, human IgG1, V domains shown)
VH: QVQLVESGAEVKKPGASVKVSCKASGGTFSSYAISWVRQAPGQGLEWMGGIIPIFGTANYAQKFQGRVTITVDKSTRTAYMELSSLRSKDTAVYYCARGNSRSDAFDIWGQGTMVTVSS
VL: SSYELTHPPSVSVSPGQTASITCSGDKLGDKFVSWYHQKPGQSPVLVIYQDSKRPSGIPERFSGSNSGNTATLTISGTRAMDEADYYCQAWDSSTVVFGGGTKLTVLG
notes: also called 1254_P02_G02; clone G4_20

T1 sequence (P02769 25-607 limits assumed): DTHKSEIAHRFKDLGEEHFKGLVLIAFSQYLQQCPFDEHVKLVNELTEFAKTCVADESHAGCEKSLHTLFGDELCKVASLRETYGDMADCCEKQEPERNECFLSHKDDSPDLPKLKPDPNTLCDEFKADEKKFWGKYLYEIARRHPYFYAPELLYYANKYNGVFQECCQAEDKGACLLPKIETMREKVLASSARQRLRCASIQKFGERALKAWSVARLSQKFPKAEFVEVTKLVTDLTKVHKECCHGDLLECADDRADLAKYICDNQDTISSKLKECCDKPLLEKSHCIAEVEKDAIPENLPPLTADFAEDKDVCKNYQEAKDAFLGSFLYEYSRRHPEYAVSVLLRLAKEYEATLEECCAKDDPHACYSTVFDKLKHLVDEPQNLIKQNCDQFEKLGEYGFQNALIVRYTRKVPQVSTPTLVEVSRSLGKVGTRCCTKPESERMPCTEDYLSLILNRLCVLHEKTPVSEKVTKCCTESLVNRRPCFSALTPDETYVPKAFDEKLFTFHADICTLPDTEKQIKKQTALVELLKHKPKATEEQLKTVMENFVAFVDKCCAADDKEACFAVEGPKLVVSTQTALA
T2 sequence (main, as listed by the source, chain 1 of 2): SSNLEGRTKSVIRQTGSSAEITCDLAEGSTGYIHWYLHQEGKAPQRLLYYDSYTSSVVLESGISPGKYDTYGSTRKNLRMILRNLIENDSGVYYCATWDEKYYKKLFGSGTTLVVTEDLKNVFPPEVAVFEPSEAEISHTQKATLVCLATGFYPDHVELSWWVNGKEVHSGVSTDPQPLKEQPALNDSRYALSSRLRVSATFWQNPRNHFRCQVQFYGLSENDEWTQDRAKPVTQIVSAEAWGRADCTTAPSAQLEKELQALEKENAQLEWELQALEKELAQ
T2 sequence (main, as listed by the source, chain 2 of 2): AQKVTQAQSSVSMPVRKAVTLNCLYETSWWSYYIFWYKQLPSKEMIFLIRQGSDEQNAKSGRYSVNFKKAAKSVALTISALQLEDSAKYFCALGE
Chain of L3 (DV1-GV8), soluble leucine zipper γδ TCR heterodimer of a delta variable 1 chain and a gamma variable 8 … (human) (chain, as listed by the source mutant, chain 1 of 2): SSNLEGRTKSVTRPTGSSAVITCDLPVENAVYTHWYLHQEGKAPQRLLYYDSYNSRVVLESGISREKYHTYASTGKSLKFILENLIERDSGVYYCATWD
Chain of L3 (DV1-GV8), soluble leucine zipper γδ TCR heterodimer of a delta variable 1 chain and a gamma variable 8 … (human) (chain, as listed by the source mutant, chain 2 of 2): as the sequence (main, as listed by the source, chain 2 of 2) above

The first assay has as its target T1, BSA (bovine, UniProt P02769).
T1 construct: coated at 3 µg/ml; also called bovine serum albumin, control antigen of the DELFIA ELISA
In words: DELFIA ELISA, coated antigen.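 Also: binding of antibody supernatants or protein-A purified antibodies to plate-coated antigen (3 µg/ml recombinant TCR or BSA), 1 h incubation at room temperature, DELFIA readout.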 For orientation: ELISA stands for enzyme-linked immunosorbent assay.
Procedure: (§1) A DELFIA ELISA binding method was also employed to assess binding of antibody supernatants or further protein-A purified antibody. In brief, MaxiSorp plates were coated with 3 μg/ml of antigen BSA or L1 (DV1-GV4), L2 (DV1-GV2), L3 (DV1-GV8), or L4 (DV2-GV4) recombinant TCR antigen. Plates were then washed with PBS, blocked with PBS/skimmed milk and then test article added and incubated for 1 hour at room temperature.
Consider B1, for which the “DELFIA ELISA response (FU)” value was determined as 67 FU and the binding result is “no binding”.
For B2, in that order: 80 FU and “no binding”.
For B3, in that order: 40 FU and “no binding”.
For B4, in that order: 88 FU and “no binding”.
In the case of B5, the “DELFIA ELISA response (FU)” value is 132 FU and the binding result is “no binding”.

The target of a further assay is L2 (DV1-GV2), soluble leucine zipper γδ TCR heterodimer of a delta variable 1 chain and a gamma variable 2 … (human). In words: DELFIA ELISA, coated antigen.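 Also: binding of antibody supernatants or protein-A purified antibodies to plate-coated antigen (3 µg/ml recombinant TCR or BSA), 1 h incubation at room temperature, DELFIA readout.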
Chain of L2 (DV1-GV2), soluble leucine zipper γδ TCR heterodimer of a delta variable 1 chain and a gamma variable 2 … (human) (chain, as listed by the source mutant, chain 1 of 2): as the sequence (main, as listed by the source, chain 1 of 2) above, with T30N, L48Q, T54N, S56K, I63V, D69Y, G72A, K76N, M80L counted along it
Chain of L2 (DV1-GV2), soluble leucine zipper γδ TCR heterodimer of a delta variable 1 chain and a gamma variable 2 … (human) (chain, as listed by the source mutant, chain 2 of 2): as the sequence (main, as listed by the source, chain 2 of 2) above
Procedure: as §1
B1: the “DELFIA ELISA response (FU)” value is 66 FU.
Regarding B2, the “DELFIA ELISA response (FU)” value is 229 FU.
Same read-out and setting: the value for B3 was 579 FU; that for B4 was 216 FU; that for B5 was 147 FU.

The next assay has as its target L3 (DV1-GV8), soluble leucine zipper γδ TCR heterodimer of a delta variable 1 chain and a gamma variable 8 … (human). In words: DELFIA ELISA, coated antigen.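 Also: binding of antibody supernatants or protein-A purified antibodies to plate-coated antigen (3 µg/ml recombinant TCR or BSA), 1 h incubation at room temperature, DELFIA readout.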
Procedure: as §1
In the case of B1, the “DELFIA ELISA response (FU)” value turned out to be 185 FU.
Take B2: the “DELFIA ELISA response (FU)” value came to 252 FU.
The same measure, in the same setting: to B3 belongs 1690 FU; to B4, 239 FU.
Take B5: the “DELFIA ELISA response (FU)” value stood at 239 FU.

Another assay addresses T2, L1 (DV1-GV4), soluble leucine zipper γδ TCR heterodimer of a delta variable 1 chain and a gamma variable 4 … (human).
T2 construct: also called bt-L1; not shown: histidine tag/linker said to follow the zipper
In words: DELFIA ELISA, coated antigen.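 Also: binding of antibody supernatants or protein-A purified antibodies to plate-coated antigen (3 µg/ml recombinant TCR or BSA), 1 h incubation at room temperature, DELFIA readout.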
As for B1, the “DELFIA ELISA response (FU)” value is 197000 FU.
Still for that read-out and setting: the value for B2 was 237000 FU.
Same read-out and setting: the value for B3 was 138000 FU; that for B4 was 213000 FU.
As for B5, the “DELFIA ELISA response (FU)” value was 184000 FU.

The target in a further assay is T2, L1 (DV1-GV4), soluble leucine zipper γδ …. In words: SPR (Reichert 4SPR), L1 coupled to chip, IgG1 flowed, steady state 1:1 fit; average.
Procedure: (§2) In brief, the binding affinity of the antibodies to target (i.e. the human Vγ4 chain of a γδ TCR) was established by SPR analysis using a Reichert 4SPR instrument (Reichert Technologies). […] All experiments were performed at room temperature, with the samples kept at 4° C. before flowing over the chip. Steady state fitting was determined according to Langmuir 1:1 binding using software TraceDrawer (Reichert Technologies).
As to B2, the Kd (usually the concentration at which binding is half-saturated) is 19 nM.
For the molecule B4, the Kd worked out at 2.86 nM.
Turning to B5, the Kd is 52.5 nM. Compared with the last molecule, the Kd is about 18-fold higher.

Another assay shares this target. In words: SPR (Reichert 4SPR), L1 coupled to chip, IgG1 flowed, steady state 1:1 fit; experiment 1.
Procedure: as §2
The molecule B2 gave a dissociation constant (Kd) of 17.8 nM.
Same read-out and setting: to B3 belongs 261 nM; to B4, 3.69 nM.
On the same count and under the same terms, to B5 belongs 43 nM.

Another assay shares this target. In words: SPR (Reichert 4SPR), L1 coupled to chip, IgG1 flowed, steady state 1:1 fit; experiment 2.
Procedure: as §2
Regarding B1, the Kd was 19.9 nM. In other words, the double-digit nanomolar range.
The same measure, in the same setting: the value for B2 was 20.2 nM; that for B4 was 2.03 nM; that for B5 was 62.1 nM.

For a further assay, the target named is T3, Vγ4 chain-bearing γδ TCR on primary human Vγ4+ T cells (skin, PBMC, gut) (human).
T3 construct: Polyclonal natural receptors; only the germline Vγ4 region is common to them; also called primary Vγ4+ T cells; primary skin-derived Vγ4+ T cells
T3 sequence (main, as listed by the source): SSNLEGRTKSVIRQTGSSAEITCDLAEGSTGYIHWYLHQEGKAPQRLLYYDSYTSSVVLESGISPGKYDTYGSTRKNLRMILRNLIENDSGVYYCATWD
In words: flow cytometry titration on skin-derived Vγ4+ T cells, left plot, anti-human IgG1 secondary.
Procedure: Detection was performed by addition of a secondary, fluorescent dye-conjugated antibody against human IgG1 (IS11-12E4.23.20). Cells were then fixed and acquired on the MACSQuant16 flow cytometer. Cells were gated as single, live, IgG1 (Vγ4)⁺. Data shown are the median fluorescent intensity (MFI) of secondary detection antibody detected bound to Vγ4⁺ cells.
As to B2, the EC50 (read off the curve) (as a rule, the concentration needed to bring the measured effect to its halfway point) is about 1 µg/mL.
Regarding B5, the 50% effective concentration (EC50 (read off the curve)) was about 2 µg/mL.

A further assay addresses T2, L1 (DV1-GV4), soluble leucine zipper γδ …. In words: SPR (Reichert 4SPR), L1 coupled to chip, IgG1 flowed, steady state 1:1 fit; average column (one experiment).
Procedure: as §2
Molecule B1 gave a Kd of 19.9 nM.
The same measure, in the same setting: to B3 belongs 261 nM.
